The source of these data is patent publication US20030148377A1, “Binding compounds and methods for identifying binding compounds” (priority 2000, published 2003).

Series [1] concerns the target T1, ZAP-70 (Homo sapiens, UniProt P43403).
T1 construct: made in house; host or cells: Sf9 cells (baculovirus)
T1 sequence (P43403 1-619): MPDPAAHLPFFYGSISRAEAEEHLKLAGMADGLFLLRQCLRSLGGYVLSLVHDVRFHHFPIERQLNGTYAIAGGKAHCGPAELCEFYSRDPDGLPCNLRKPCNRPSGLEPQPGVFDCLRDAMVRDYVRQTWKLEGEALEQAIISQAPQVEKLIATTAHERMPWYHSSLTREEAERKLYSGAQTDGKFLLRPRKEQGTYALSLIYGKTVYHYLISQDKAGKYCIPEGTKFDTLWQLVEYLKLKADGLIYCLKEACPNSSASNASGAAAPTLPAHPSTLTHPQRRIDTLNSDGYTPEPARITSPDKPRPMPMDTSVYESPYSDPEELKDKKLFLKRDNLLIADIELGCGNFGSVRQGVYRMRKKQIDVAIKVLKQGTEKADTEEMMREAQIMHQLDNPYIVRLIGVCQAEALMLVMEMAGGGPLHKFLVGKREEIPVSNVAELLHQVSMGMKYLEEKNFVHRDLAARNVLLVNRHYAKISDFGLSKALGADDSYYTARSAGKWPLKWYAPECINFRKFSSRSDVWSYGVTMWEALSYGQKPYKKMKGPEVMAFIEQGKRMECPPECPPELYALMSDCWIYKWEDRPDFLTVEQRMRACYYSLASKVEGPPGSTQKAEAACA
The experiment in a line: Inhibition of tubulin phosphorylation by ZAP-70. It is filed as biochemical. Conditions: tubulin (5 μM) as substrate; FIG. 1D; compared to peptide 4. On the procedure: FIG. 1A: A glutathione-S-transferase chimera of ZAP-70 was purified from Sf9 cells and assayed for its ability to phosphorylate tubulin in the presence of 0, 50, or 100 μM of peptide 1 (SEQ ID NO: 5) or peptide 2 (SEQ ID NO: 6). The assay was carried out in kinase buffer (5 mM MnCl2, 5 mM MgCl2, 25 mM Tris [pH 7.4]), 50 μM ATP, and […] [γ-^32P]ATP for 5 min at 30° C. ^32P-phosphorylated tubulin was separated on SDS-PAGE, visualized by autoradiography (inset), and quantitated using a molecular imager (Bio-Rad).
FIG. 1D: The ZAP-70 Tyr-kinase assay was as described above, using tubulin (5 μM) as substrate. […]
(§1) Synthetic peptides, tubulin, or GST-band III (construct kindly provided by A. Weiss, University of California, San Francisco) (Zhao and Weiss, 1996) were phosphorylated by ZAP-70-GST-fused protein in the presence or absence of the indicated amount of inhibitory peptides in the kinase buffer (10 mM MnCl2, 50 mM Tris [pH 7.4], 1 mM DTT), 100 μM ATP, and 5 μCi [γ-^32P]ATP for 5 min (or 10 min for GST-band-III) at 30° C. The amount of radioactivity incorporated into substrate peptide was determined using the phosphocellulose assay. […] Phosphorylated tubulin, GST-band III, and myelin basic protein were separated on SDS-PAGE, visualized by autoradiography, and quantitated using a molecular imager (Bio-Rad, Hercules, Calif.).

For series [2], the target named is T1, ZAP-70. Kind of series: Inhibition of ZAP-70 phosphorylation of peptide 1 (phosphocellulose assay, Lineweaver-Burke plot). It is filed as biochemical. The note with it: peptide 1 as substrate; FIG. 1B; compared to peptide 4. As for the experimental part: FIG. 1B: ZAP-70 was also assayed for its ability to phosphorylate peptide 1 (10 μM) in the presence of 0, 10, or 50 μM of peptide 4 (SEQ ID NO: 9) or peptide 5 (SEQ ID NO: 10). Peptide phosphorylation was determined by spotting the reaction mixture on phosphocellulose and washing away the ^32P-ATP with a phosphate buffer. The polylysine tail of peptide 1 facilitates retention on the phosphocellulose (Songyang et al., 1996). The data are presented as the percentage of the activity present in the absence of inhibitory peptides. […]
as §1

For another series, the target named is T2, Lck-GST-fused protein (Homo sapiens, UniProt P06239).
T2 construct: made in house; host or cells: Sf9 cells
T2 sequence (P06239 whole entry, the tested form may be a part): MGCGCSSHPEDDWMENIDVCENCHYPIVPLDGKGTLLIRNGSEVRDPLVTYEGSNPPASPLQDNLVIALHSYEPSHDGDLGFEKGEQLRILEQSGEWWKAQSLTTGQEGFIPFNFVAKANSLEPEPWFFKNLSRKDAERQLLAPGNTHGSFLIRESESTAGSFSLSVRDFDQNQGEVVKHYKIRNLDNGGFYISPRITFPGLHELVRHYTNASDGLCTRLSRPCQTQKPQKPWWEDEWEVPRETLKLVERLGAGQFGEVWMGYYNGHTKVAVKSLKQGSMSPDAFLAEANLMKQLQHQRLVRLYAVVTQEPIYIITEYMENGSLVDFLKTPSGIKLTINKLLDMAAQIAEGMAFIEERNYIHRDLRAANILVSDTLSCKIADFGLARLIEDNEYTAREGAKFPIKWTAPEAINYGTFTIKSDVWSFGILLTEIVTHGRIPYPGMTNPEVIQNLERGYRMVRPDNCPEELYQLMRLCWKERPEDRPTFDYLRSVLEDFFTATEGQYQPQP
The experiment in a line: Inhibition of myelin basic protein phosphorylation by Lck. It is filed as biochemical. Conditions: myelin basic protein (5 μM) as substrate; FIG. 1E; compared to peptide 4. As for the experimental part: FIG. 1E: A glutathione-S-transferase chimera of Lck was purified from Sf9 cells and assayed for the ability to phosphorylate myelin basic protein (5 μM) in the presence or absence of the same three peptides as used in FIG. 1D. The assay was carried out for 5 min at 30° C.
as §1, with “assay. Lck-GST-fused protein was purified from Sf9 cells. Myelin basic protein was phosphorylated by Lck-GST-fused protein in the presence or absence of inhibitory peptides in the kinase buffer (5 mM MnCl2, 5 mM MgCl2, 25 mM Tris [pH 7.4]), 50 μM ATP, and 5 μCi [γ-^32P]ATP for 5 min at 30° C.” for “assay.”

Substrate in series [3]: CC[C@H](C)[C@H](NC(=O)[C@H](CC(C)C)NC(=O)[C@@H](N)CCCCN)C(=O)N[C@@H](CC(C)C)C(=O)N[C@@H](Cc1ccc(O)cc1)C(=O)N[C@@H](CC(C)C)C(=O)N[C@@H](CC(C)C)C(=O)N[C@@H](CC(C)C)C(=O)N[C@@H](CC(C)C)C(=O)N[C@@H](C)C(=O)N[C@@H](CCCCN)C(=O)N[C@@H](CCCCN)C(=O)N[C@@H](CCCCN)C(=O)O
Kind of series: Kinetic parameters for the phosphorylation of synthetic peptides by ZAP-70 (phosphocellulose assay). The note with it: other: peptide as substrate, 100 μM ATP, 5 min at 30° C., average of three independent experiments. It is filed as biochemical, Human. On the procedure:
(§2) Human ZAP-70-glutathione S-transferase (GST)-fused protein was expressed in Sf9 cells using baculovirus. In this study, we used GST-ZAP-70 expressed in Sf9 cells without coexpression of Lck for library screening and kinase assays because the substrate selectivity of partially activated ZAP-70 is higher than that of fully activated ZAP-70 in peptide library screening for their specific substrate motifs (unpublished results). ZAP-70-GST fused protein (600 μg) was purified by using glutathione-agarose beads. […]
as §1, with “Calif.). […]” for “Calif.).”

Substrate in series [4]: CC[C@H](C)[C@H](NC(=O)[C@H](CC(C)C)NC(=O)[C@@H](N)CCC(=O)O)C(=O)N[C@@H](CC(C)C)C(=O)N[C@@H](Cc1ccc(O)cc1)C(=O)N[C@@H](CC(C)C)C(=O)N[C@@H](CC(C)C)C(=O)N[C@@H](CC(C)C)C(=O)N[C@@H](CC(C)C)C(=O)N[C@@H](C)C(=O)N[C@@H](CCCCN)C(=O)N[C@@H](CCCCN)C(=O)N[C@@H](CCCCN)C(=O)O
The series is described as above. It counts as biochemical, Human. Conditions: other: peptide as substrate, 100 μM ATP, 5 min at 30° C., average of three independent experiments. As for the experimental part: as §2
as §1, with “Calif.). […]” for “Calif.).”

Series [5] concerns the target T3, peptide 2 (predicted optimal ZAP-70 binding peptide, KLILYLLLL AKKK).
T3 chain: KLILYLLLLAKKK

Series [6] addresses T4, peptide 3 (ELILYLLLL AKKK).
T4 chain: ELILYLLLLAKKK

Series [7] addresses T5, peptide 1 (optimal ZAP-70 substrate, EEEEYFFII AKKK).
T5 chain: EEEEYFFIIAKKK

The target of series [8] is T6, Human ZAP-70-glutathione S-transferase (GST)-fused protein (human, UniProt P43403 1-619).
T6 construct: the SH2 domains are spoken of as present; also called ZAP-70-GST fused protein; GST-ZAP-70; not shown: glutathione S-transferase (GST) fusion partner
T6 sequence (looked up): T1 sequence (P43403 1-619)
The experiment in a line: comparison of ZAP-70 inhibition by peptide 4 and peptide 6, tubulin as substrate.

Regarding “KLILYLLLL [peptide 6, identical to peptide 4 except for Tyr replacing the Phe]”, in the series with ZAP-70 [1], the “ZAP-70 inhibitory effect (in words)” value is given as “little effect on peptide binding to ZAP-70”.
Regarding “peptide 5: peptide 4 with deletion of the Lys at position −4 (LILYLLLL)”, the “inhibitory ability on ZAP-70 (in words)” value with ZAP-70 [2] is “dramatically reduced the inhibitory ability”. The “ZAP-70 inhibitory effect (in words)” value in the series with ZAP-70 [1] is reported as “less effective as an inhibitor of both kinases”. For the same molecule, the “Lck inhibitory effect (in words)” value in the series with Lck-GST-fused protein was “less effective as an inhibitor of both kinases”.

B1: ZAP-70-GST-fused protein (Homo sapiens) (protein)
chain: T1 sequence (P43403 1-619)
notes: made in house; host or cells: Sf9 cells (baculovirus)
As usually defined, the Km is the concentration of substrate that gives half-maximal velocity. Regarding B1, the Km in [3] is 26 µM; in series [4] it was 188 µM. The Km (µM) for phosphorylation of the synthetic peptide by ZAP-70 was 26 µM in [5], 188 µM in series [6] and 40 µM in [7]. Further, the “Km relative to peptide 2” value in series [6] is reported as 7-fold higher Km than peptide 2.

B2: peptide 6 (KLILYLLLL) (peptide)
peptide: KLILYLLLL
notes: Identical to peptide 4 except for Tyr replacing the Phe
As for B2, the binding result in [8] is reported as “binds”.
